In paper PMC9196870, “Crystal Structure of an Intramolecular Mesaconyl-Coenzyme A Transferase From the 3-Hydroxypropionic Acid Cycle of Roseiflexus castenholzii” (Frontiers in Microbiology, 2022):

Molecular target: the molecule itself
Assay: SEC; gel filtration, Superdex 200 10/300 GL, 25 mM Tris-Cl pH 8.0, 150 mM NaCl, 0.5 mL/min

B1: Mesaconyl-CoA C1-C4 CoA transferase (MCT) from Roseiflexus castenholzii (enzyme)
chain: MNGILSGMRIVEGSAFVAAPLGGMTLAQLGADVIRFDPIGGGLDYKRWPVTLDGKHSLFWAGLNKGKRSIAIDIRHPRGQELLTQLICAPGDEAGLFITNFPARGWLSYEALKAHRADLIMVNLLGRRDGGSEVDYTVNPQLGLPFMTGPFTSPEVVNHVLPAWDIVTGQMIALGLLAAERHRRRTGEGQLVKLALKDVGLAMIGHLGMIAEVMINDADRPKQGNYLYGAFGRDFETLDGKRVMVVGLTDLQWKALGKATGLTDAFNALGARLGLDMNDEGNRFRARREIAALLEPWFHARTFAEVRRVFEEHRVTWGPYRTVREAIAQDPDCSTENPMFTMVEQPGIGTYLMPASPLDFSRMPRLPAQRAPRLGEHTDEILLEVLGLSDGEVGKLHDEGIVAGPEEE
  stoichiometry N: 2
